Reference: article PMC3393660, “Structural Interaction and Functional Regulation of Polycystin-2 by Filamin” (PLoS ONE, 2012)

Legend:
His-FLNAC [1] = biological target: T1, His-FLNAC (human, UniProt P21333 2150-2647); experiment: pull-down; purified GST fusion protein (2 µg) incubated with purified His-FLN C-terminus (2 µg); 150 mM NaCl, 1.0 mM CaCl2, 50 mM Tris pH 7.5, room temperature; glutathione-agarose beads; immunoblot with anti-His; details: both partners purified
T1 construct: Filamin-A, human, C-terminus aa 2150-2647; also called His-tagged FLNAC; not shown: His tag, N-terminal, kept
T1 sequence (looked up): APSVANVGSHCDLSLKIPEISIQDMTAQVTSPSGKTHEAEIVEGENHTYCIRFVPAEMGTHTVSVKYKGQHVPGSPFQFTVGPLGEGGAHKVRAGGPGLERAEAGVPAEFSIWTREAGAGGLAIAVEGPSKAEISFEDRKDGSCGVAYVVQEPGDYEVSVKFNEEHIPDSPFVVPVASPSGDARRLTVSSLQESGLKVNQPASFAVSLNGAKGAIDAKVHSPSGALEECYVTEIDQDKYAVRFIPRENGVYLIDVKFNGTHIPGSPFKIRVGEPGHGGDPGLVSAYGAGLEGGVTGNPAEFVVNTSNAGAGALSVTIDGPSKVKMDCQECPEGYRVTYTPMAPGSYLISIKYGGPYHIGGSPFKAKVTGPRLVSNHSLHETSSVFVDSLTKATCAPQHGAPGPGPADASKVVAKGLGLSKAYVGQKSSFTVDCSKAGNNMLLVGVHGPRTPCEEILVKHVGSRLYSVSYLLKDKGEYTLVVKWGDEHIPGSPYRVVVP

His-FLNBC = biological target: T2, His-FLNBC (human, UniProt O75369 2105-2602); experiment: pull-down; pre-cleared E. coli extracts (250 µl) with GST-PC2N or GST-PC2C incubated with purified His-FLN C-terminus (2 µg); 150 mM NaCl, 1.0 mM CaCl2, 50 mM Tris pH 7.5, room temperature; glutathione-agarose beads; immunoblot with anti-His; details: one partner purified
T2 construct: Filamin-B, human, C-terminus aa 2105-2602; also called His-tagged FLNBC; not shown: His tag, N-terminal, kept
T2 sequence (looked up): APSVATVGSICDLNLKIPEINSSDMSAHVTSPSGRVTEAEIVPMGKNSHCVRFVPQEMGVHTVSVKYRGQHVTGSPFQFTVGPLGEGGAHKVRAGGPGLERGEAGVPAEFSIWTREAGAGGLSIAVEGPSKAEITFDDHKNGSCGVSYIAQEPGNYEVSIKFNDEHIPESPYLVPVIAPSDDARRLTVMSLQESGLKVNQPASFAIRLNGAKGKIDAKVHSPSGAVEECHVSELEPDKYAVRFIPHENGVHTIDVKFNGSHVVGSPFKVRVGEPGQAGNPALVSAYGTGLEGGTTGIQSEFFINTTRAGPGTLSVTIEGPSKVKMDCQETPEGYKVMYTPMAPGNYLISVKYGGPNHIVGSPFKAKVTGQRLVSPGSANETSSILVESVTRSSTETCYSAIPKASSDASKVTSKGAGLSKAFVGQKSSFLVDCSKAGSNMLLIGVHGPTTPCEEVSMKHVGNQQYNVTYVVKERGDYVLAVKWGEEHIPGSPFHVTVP

His-FLNCC = biological target: T3, His-FLNCC (human, UniProt Q14315 2144-2725); experiment: as above; details: one partner purified
T3 construct: Filamin-C, human, C-terminus aa A2144-P2725; also called His-tagged FLNCC; not shown: His tag, N-terminal, kept
T3 sequence (looked up): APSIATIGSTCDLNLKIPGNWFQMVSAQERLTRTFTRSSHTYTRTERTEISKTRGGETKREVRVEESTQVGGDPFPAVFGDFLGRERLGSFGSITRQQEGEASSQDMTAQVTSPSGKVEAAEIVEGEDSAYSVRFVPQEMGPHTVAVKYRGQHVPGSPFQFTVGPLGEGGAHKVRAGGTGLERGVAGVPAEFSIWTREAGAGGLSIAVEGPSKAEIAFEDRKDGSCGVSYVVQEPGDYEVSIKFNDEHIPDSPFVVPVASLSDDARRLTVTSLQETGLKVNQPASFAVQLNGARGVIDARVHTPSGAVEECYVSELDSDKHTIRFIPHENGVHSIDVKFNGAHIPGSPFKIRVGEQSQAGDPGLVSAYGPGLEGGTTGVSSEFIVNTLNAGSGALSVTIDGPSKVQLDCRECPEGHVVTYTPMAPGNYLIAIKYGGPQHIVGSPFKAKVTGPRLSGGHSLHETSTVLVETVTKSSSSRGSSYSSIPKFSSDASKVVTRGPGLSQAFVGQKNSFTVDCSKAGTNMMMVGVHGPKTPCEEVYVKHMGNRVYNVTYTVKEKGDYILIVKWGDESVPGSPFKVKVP

His-FLNAC [2] = biological target: T1, His-FLNAC; experiment: as above; details: one partner purified

Measured: binding result

B1: GST-PC2N (domain or fragment, human, UniProt Q13563 1-215, looked up)
chain: MVNSSRVQPQQPGDAKRPPAPRAPDPGRLMAGCAAVGASLAAPGGLCEQRGLEIEMQRIRQAAARDPPAGAAASPSPPLSSCSRQAWSRDNPGFEAEEEEEEVEGEEGGMVVEMDVEWRPGSRRSAASSAVSSVGARSRGLGGYHGAGHPSGRRRRREDQGPPCPSPVGGGDPLHRHLPLEGQPPRVAWAERLVRGLRGLWGTRLMEESSTNREK
notes: Polycystin-2, human, N-terminus PC2N, amino acids 1-215; in pGEX5X; also called GST-tagged PC2N; source: E. coli BL21 (DE3), in lysate; also purified (commercial GST purification kit)
binds: His-FLNAC [1] | His-FLNBC | His-FLNCC

B2: GST-PC2C (domain or fragment, human, UniProt Q13563 682-968, looked up)
chain: DTYSEVKSDLAQQKAEMELSDLIRKGYHKALVKLKLKKNTVDDISESLRQGGGKLNFDELRQDLKGKGHTDAEIEAIFTKYDQDGDQELTEHEHQQMRDDLEKEREDLDLDHSSLPRPMSSRSFPRSLDDSEEDDDEDSGHSSRRRGSISSGVSYEEFQVLVRRVDRMEHSIGSIVSKIDAVIVKLEIMERAKLKRREVLGRLLDGVAEDERLGRDSEIHREQMERLVREELERWESDDAASQISHGLGTPVGLNGQPRPRSSRPSSSQSTEGMEGAGGNGSSNVHV
notes: Polycystin-2, human, C-terminus PC2C, amino acids 682-968; in pGEX5X; also called GST-tagged PC2C; source: E. coli BL21 (DE3), in lysate; also purified (commercial GST purification kit)
binds: His-FLNAC [2] | His-FLNBC | His-FLNCC
